As usually defined, the IC50 is the concentration at which inhibition is half-maximal. The EC50 is the concentration at which the effect is half-maximal. For orientation: Kd means the free concentration of one partner at which half of the binding sites on the other are occupied at equilibrium, for simple one-to-one binding. As usually defined, the koff is a measure of how fast the partners let go of each other. What is called kon is the second-order rate constant of association.

“And” between values parts separate entries of the source, which are not always exact repeats. Equal values may be shown once.

Test [1] concerns the target T1, recombinant human IL17A protein (human, UniProt Q16552 24-155). Description: cell-based or functional assay.
In test [2] the target is T1, recombinant human IL17A protein. Description: competition ELISA: IL17A coated, competitor IL17RA-His-biotin at 2 µg/mL, antibody varied.
The target is the same in test [3]. Description: ELISA: IL17A coated at different concentrations, antibody fixed at 2 µg/mL, anti-human IgG Fc/HRP; EC50 is on the antigen concentration. In general terms: An ELISA detects its analyte on a solid surface through an enzyme-linked reagent.
For test [4] the target is unchanged. Description: Octet (BLI), biotinylated IL17A, antibody 0.42-3.47 nM. In general terms: BLI is a label-free optical method that tracks binding on a fibre tip over time.
Test [5] has as its target T2, recombinant human IL17A/F dimer protein (SinoBiological, Inc., CT047-HNAE) (human, UniProt Q16552 24-155; Q96PD4 31-163).
T2 construct: Bought heterodimer; also called IL17A/IL17F protein; IL17A/F-Biotin protein
Kind of test: Octet (BLI), biotinylated IL17A/F, antibody 0.42-3.47 nM.

The target in test [6] is T3, mouse mIL17A protein (Sino Biological, Inc.) (mouse, UniProt Q62386 26-158).
T3 construct: also called mouse IL17A protein
T3 sequence (looked up): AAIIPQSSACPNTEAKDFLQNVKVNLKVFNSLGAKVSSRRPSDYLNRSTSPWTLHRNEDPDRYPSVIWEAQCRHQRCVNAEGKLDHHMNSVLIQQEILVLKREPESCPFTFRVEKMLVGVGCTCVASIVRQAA
Description: ELISA, coated antigen, goat anti-human IgG Fc/HRP.

Test [7] concerns the target T2, recombinant human IL17A/F dimer protein …. Description: competition ELISA: IL17RA-Fc coated (competitor), IL17A/F-Biotin at 0.8 µg/mL, antibody varied.
In test [8] the target is T1, recombinant human IL17A protein. Kind of test: cell-based or functional assay. This is another data set of the same source.
Test [9] deals with T2, recombinant human IL17A/F dimer protein …. Kind of test: cell-based or functional assay.
Test [10] shares this target. Kind of test: ELISA: IL17A/F coated at different concentrations, antibody fixed at 2 µg/mL, anti-human IgG Fc/HRP; EC50 is on the antigen concentration.

T1 sequence (Q16552 24-155 limits assumed): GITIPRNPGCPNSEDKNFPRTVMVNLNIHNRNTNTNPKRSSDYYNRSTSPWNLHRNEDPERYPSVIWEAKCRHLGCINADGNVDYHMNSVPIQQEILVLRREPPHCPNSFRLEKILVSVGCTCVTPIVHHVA
T2 sequence (Q16552 24-155 limits assumed, chain 1 of 2): as the sequence (Q16552 24-155 limits assumed) above
T2 sequence (Q96PD4 31-163 limits assumed, chain 2 of 2): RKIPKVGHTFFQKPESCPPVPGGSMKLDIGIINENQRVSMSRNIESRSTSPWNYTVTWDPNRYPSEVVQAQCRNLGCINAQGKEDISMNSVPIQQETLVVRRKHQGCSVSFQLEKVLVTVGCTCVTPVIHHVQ

B1: murine antibody IL17A-M069 (antibody, mouse IgG1, V domains shown)
VH: QAHLQQSGAELVRPGASVKLSCKALGYTFTDYEMHWVKQTPVHGLEWIGVIHPGGGGTAYNQKFKGKATLTADKSSSTAYMELSSLTSEDSAVYYCTRGDHDGRTDYWGQGTTLTVSS
VL: DIVMSQSPSSLAMSVGQKVTMNCKSNQSLLNRSNQKNYLAWYQQKPGQSPKLLVDFASTRESGVPDRFIGSGSGTDFSLTISSVQAEDLADYFCQQHYTTPFTFGSGTKLEIK
Take B1: in test [1], the “EC50 of blocking IL17A-induced IL-6 secretion of HFF cells” value was 0.243 µg/mL.

B2: humanized antibody IL17A-H069 (antibody, human IgG1, kappa, V domains shown)
VH: EVQLVQSGAEVKKPGATVKISCKASGYTFTDYEMHWVQQAPGHGLEWMGVIHPGGGGTAYNQKFKGRVTITADTSTDTAYMELSSLRSEDTAVYYCTRGDHDGRTDYWGQGTLVTVSS
VL: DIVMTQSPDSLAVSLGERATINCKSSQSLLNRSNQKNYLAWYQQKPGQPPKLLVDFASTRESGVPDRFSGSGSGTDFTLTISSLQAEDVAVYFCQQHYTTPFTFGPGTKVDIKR
notes: Humanized IgG1/kappa made in CHO-K1-GS cells
B2: the 50% inhibitory concentration (IC50) in test [2] stood at 0.5 µg/mL; in [7], 1.02 µg/mL. Moreover, the values for the half-maximal effective concentration (EC50) in [3] and in [10] were 0.046 µg/mL and 0.0363 µg/mL, respectively. Also, the dissociation constant (Kd) in [4] stood at 28.8 pM; in test [5], 537 pM. Further, the off-rate (koff) in [4] came to 1.93e-05 s⁻¹; in [5], 7.72e-05 s⁻¹. Further, the association rate constant (kon) in [4] turned out to be 671000 M⁻¹ s⁻¹; in test [5] it was 144000 M⁻¹ s⁻¹. Besides, the binding result in test [6] is listed as “no binding”. For the same molecule, in test [8], the “EC50 (µg/mL), blocking IL17A-induced IL6 secretion of HFF cells” value is 0.2 µg/mL and 0.19 µg/mL. For the same molecule, in test [9], the “EC50 (µg/mL), blocking IL17A/F-induced IL6 secretion of HFF cells” value is 1.19 µg/mL and 0.83 µg/mL.
